From IntAct's records for PubMed 11752373

B1: Cryptochrome-1 (Arabidopsis thaliana (Mouse-ear cress)), Q43125 (parent)
chain: MSGSVSGCGSGGCSIVWFRRDLRVEDNPALAAAVRAGPVIALFVWAPEEEGHYHPGRVSRWWLKNSLAQLDSSLRSLGTCLITKRSTDSVASLLDVVKSTGASQIFFNHLYDPLSLVRDHRAKDVLTAQGIAVRSFNADLLYEPWEVTDELGRPFSMFAAFWERCLSMPYDPESPLLPPKKIISGDVSKCVADPLVFEDDSEKGSNALLARAWSPGWSNGDKALTTFINGPLLEYSKNRRKADSATTSFLSPHLHFGEVSVRKVFHLVRIKQVAWANEGNEAGEESVNLFLKSIGLREYSRYISFNHPYSHERPLLGHLKFFPWAVDENYFKAWRQGRTGYPLVDAGMRELWATGWLHDRIRVVVSSFFVKVLQLPWRWGMKYFWDTLLDADLESDALGWQYITGTLPDSREFDRIDNPQFEGYKFDPNGEYVRRWLPELSRLPTDWIHHPWNAPESVLQAAGIELGSNYPLPIVGLDEAKARLHEALSQMWQLEAASRAAIENGSEEGLGDSAEVEEAPIEFPRDITMEETEPTRLNPNRRYEDQMVPSITSSLIRPEEDEESSLNLRNSVGDSRAEVPRNMVNTNQAQQRRAEPASNQVTAMIPEFNIRIVAESTEDSTAESSSSGRRERSGGIVPEWSPGYSEQFPSEENGIGGGSTTSSYLQNHHEILNWRRLSQTG
partner: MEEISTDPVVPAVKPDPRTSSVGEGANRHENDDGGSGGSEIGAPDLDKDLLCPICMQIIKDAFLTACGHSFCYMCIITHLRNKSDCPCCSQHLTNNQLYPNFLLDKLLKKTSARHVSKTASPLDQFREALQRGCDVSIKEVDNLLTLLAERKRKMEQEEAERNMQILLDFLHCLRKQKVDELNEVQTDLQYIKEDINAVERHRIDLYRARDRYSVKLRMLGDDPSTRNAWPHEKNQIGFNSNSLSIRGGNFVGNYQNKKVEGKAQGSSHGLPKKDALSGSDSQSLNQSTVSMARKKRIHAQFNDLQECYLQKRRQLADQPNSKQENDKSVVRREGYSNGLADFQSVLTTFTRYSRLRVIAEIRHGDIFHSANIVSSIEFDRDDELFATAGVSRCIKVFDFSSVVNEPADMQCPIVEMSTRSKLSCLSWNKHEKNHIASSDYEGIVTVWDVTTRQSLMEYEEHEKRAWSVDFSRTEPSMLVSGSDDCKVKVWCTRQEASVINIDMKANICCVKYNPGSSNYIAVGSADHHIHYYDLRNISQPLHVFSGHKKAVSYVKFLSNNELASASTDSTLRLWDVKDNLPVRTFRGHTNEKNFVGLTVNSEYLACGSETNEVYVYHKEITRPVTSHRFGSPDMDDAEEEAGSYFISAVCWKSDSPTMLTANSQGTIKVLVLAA
B2: E3 ubiquitin-protein ligase COP1 (Arabidopsis thaliana (Mouse-ear cress)), P43254 (parent)
chain: B1 partner

Variants of: B1
Conditions: with cop1_arath COP1, P43254

Variant | effect of a mutation on the interaction
R611K | decreasing interaction
E531K | decreasing interaction
R576K | decreasing interaction
R581K | decreasing interaction
E515K | decreasing interaction

Further lines, results first:

effect of a mutation on the interaction | Variant
disrupting interaction | E559K
decreasing interaction | P549L

Variants of: B2
Conditions: with cry1_arath CRY1, Q43125

Variant | effect of a mutation on the interaction
G524E | decreasing interaction
E592R | decreasing interaction
K422E | decreasing interaction
W467A | decreasing interaction

Next, values leading:

effect of a mutation on the interaction | Variant
decreasing interaction | K550E
decreasing interaction | R465E
